Measurements as given in article PMC2811012 (Nucleic Acids Research, 2009).
One block for each compound: values may come before it.

What was measured:
[1] = molecular target: Human M-phase phosphoprotein chromodomain-containing region (amino acids 50–120) with N-terminal GST tag (human) (UniProt Q99549); test: AlphaScreen or HTRF
[2] = molecular target: Mouse heterochromatin protein 1-beta chromodomain-containing region (amino acids 1–185) with N-terminal GST tag (mouse) (UniProt P83917); test: AlphaScreen or HTRF
Sequence of Mouse heterochromatin protein 1-beta chromodomain-containing region (amino acids 1–185) with N-terminal GST tag (mouse) (P83917 whole entry, the tested form may be a part): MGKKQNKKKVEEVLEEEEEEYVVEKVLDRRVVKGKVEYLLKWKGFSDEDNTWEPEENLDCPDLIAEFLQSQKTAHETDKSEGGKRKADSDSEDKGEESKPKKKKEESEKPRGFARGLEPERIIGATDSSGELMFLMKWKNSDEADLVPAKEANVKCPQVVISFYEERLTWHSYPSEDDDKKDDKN

[3] = molecular target: T1, GST-MPP8 (MPP8 chromodomain) (Homo sapiens, UniProt Q99549); test: AlphaScreen competitive binding, GST-MPP8/b-H3K9me3
T1 sequence (Q99549 50-120): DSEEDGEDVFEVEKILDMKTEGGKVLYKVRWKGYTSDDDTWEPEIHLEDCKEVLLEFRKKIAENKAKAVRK

fold AlphaScreen signal over b-H3K4me3 [1]: 1.7 fold
fold AlphaScreen signal over b-H3K4me3 [2]: 3.3 fold
Compound: biotinylated histone H3 peptide trimethylated at Lys9

AlphaScreen signal [1]: 26000 c.p.s.
AlphaScreen signal [2]: 7800 c.p.s.
Compound: biotinylated histone H3 peptide trimethylated at Lys4

Compound: C[C@H](N)C(=O)N[C@@H](CCCNC(=N)N)C(=O)N[C@H](C(=O)N[C@@H](CCCCN)C(=O)N[C@@H](CCC(N)=O)C(=O)N[C@H](C(=O)N[C@@H](C)C(=O)N[C@@H](CCCNC(=N)N)C(=O)N[C@@H](CCCCN)C(=O)N[C@@H](CO)C(=O)N[C@H](C(=O)NCC(=O)NCC(=O)N[C@@H](CCCCN)C(=O)N[C@@H](C)C(=O)N1CCC[C@H]1C(=O)N[C@@H](CCCNC(=N)N)C(=O)N[C@@H](CCCCN)C(=O)O)[C@@H](C)O)[C@@H](C)O)[C@@H](C)O [Peptide H3]
EC50 [3]: 160 µM
